Results from patent US20150218281A1 (Ablynx, published 2015).

T1: recombinant human OX40L (extracellular domain, R&D Systems) (human, UniProt P23510 51-183)
T1 construct: also called hOX40L; rec. hOX40L
T1 sequence: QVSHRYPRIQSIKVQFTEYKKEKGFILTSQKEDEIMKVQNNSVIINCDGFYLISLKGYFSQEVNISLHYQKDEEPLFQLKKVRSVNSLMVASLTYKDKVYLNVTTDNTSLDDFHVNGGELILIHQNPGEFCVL

T2: cynomolgus OX40L expressed on CHO cells (cynomolgus monkey, UniProt P23510 1-183 (human entry))
T2 construct: also called cynoOX40L; CHO-cynoOX40L
T2 chain: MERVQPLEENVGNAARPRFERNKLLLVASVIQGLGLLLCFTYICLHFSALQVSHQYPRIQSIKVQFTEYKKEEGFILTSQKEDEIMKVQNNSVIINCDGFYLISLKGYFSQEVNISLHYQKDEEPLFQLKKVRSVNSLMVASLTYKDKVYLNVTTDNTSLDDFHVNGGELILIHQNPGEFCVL

T3: full length human OX40L expressed on CHO cells (human, UniProt P23510 1-183)
T3 construct: CHO K1 stably transfected as described for CAKI cells; also called CHO-hOX40L; hOX40L expressing CHO cells
T3 sequence: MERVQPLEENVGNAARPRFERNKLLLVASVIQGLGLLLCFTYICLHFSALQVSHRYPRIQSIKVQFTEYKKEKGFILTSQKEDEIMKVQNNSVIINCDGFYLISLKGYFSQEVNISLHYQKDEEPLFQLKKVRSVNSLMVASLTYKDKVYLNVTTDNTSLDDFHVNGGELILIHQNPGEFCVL

T4: biotinylated hOX40L (R&D Systems, biotinylated in house) (human, UniProt P23510 51-183, biotinylated with Sulfo-NHS-LC-Biotin, sites not stated)
T4 construct: same bought protein as m10, biotinylated; also called biotinylated OX40L
T4 sequence: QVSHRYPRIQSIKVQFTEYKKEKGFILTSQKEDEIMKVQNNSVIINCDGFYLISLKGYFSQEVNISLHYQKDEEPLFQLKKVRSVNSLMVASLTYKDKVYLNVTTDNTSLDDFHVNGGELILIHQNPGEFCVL


Tests used:
[1] = target: T1, recombinant human OX40L (extracellular …); assay: SPR, second injection after competitor OX40L01B11
Protocol: (§1) In addition, it was investigated to what extend the 7 anti-OX40L Nanobodies have a different or identical or overlapping epitope. Standard conditions were as described above. […] 1300 RU. A dual injection was performed at 10 μl/min for 2 min, starting with 500 nM of the first Nanobody, followed by 500 nM of the second Nanobody. After 10 min dissociation, regeneration of the surface was performed by injection of 50 mM NaOH for 5-20 sec at 100 μl/min.

[2] = target: T2, cynomolgus OX40L expressed on CHO cells; assay: FACS binding to CHO cells, anti-c-myc detection
Protocol: (§2) Transfection of CHO K1 with the respective expression plasmid DNA and selection of clones with high expression levels was performed as described in Example 1. Binding of the Nanobodies to the cell surface expressed OX40L was assessed by FACS analysis of cells as described below.
(§3) After washing bound Nanobodies were detected in FACSArray™ using mouse anti-c-myc and PE conjugated goat anti-mouse IgG.

[3] = target: T3, full length human OX40L expressed on …; assay: FACS binding to CHO cells, anti-c-myc detection
Protocol: as §2, §3

[4] = target: T1, recombinant human OX40L (extracellular …); assay: SPR, second injection after competitor OX40L18E09
Protocol: as §1

[5] = target: T3, full length human OX40L expressed on …; assay: competition FACS, 3.1 nM hOX40/Fc on hOX40L expressing cells
[6] = target: T1, recombinant human OX40L (extracellular …); assay: SPR, after second injection of buffer HBS-EP+
Protocol: as §1

[7] = target: T3, full length human OX40L expressed on …; assay: cell-based or functional assay
[8] = target: T1, recombinant human OX40L (extracellular …); assay: SPR, second injection after competitor OX40L19D08
Protocol: as §1

[9] = target: T1, recombinant human OX40L (extracellular …); assay: SPR, second injection after competitor OX40L01E07
Protocol: as §1

[10] = target: T4, biotinylated hOX40L (R&D Systems, …); assay: AlphaScreen, 31 pM biotinylated hOX40L + 80 pM OX40/Fc
Protocol: (§4) Next, streptavidin donor beads were added and incubated for an additional 1 hour. Fluorescence was measured by reading plates on the EnVision Multilabel Plate Reader using an excitation wavelength of 680 nm and an emission wavelength of 520 nm.

[11] = target: T1, recombinant human OX40L (extracellular …); assay: SPR, second injection after competitor OX40L15B07
Protocol: as §1

[12] = target: T4, biotinylated hOX40L (R&D Systems, …); assay: AlphaScreen, 120 pM biotinylated hOX40L + 0.2 nM hOX40/Fc
Protocol: as §4

[13] = target: T1, recombinant human OX40L (extracellular …); assay: SPR, second injection after competitor OX40L01E10
Protocol: as §1

[14] = target: T1, recombinant human OX40L (extracellular …); assay: SPR, second injection after competitor OX40L19A07
Protocol: as §1

[15] = target: T3, full length human OX40L expressed on …; assay: competition FACS with hOX40/Fc on CHO-hOX40L
Protocol: The competition FACS assay was performed as described in example 2.

[16] = target: T5, human tumor necrosis factor-related apoptosis inducing ligand (human, UniProt P50591 114-281); assay: competition ELISA on neutravidin captured biotinylated hOX40L
T5 construct: also called hTRAIL; TRAIL
T5 sequence (P50591 114-281 limits assumed): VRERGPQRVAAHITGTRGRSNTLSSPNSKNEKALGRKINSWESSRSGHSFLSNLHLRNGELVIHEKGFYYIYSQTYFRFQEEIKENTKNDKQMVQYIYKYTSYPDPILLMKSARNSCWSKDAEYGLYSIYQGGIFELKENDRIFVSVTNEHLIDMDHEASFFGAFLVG
Protocol: The binding of OX40L blocking Nanobodies to other TNF family members was tested in a competition ELISA.
Detection was done using sTMB (SDT Reagents, Baesweiler, Germany), the reaction was stopped with 1M HCl and absorbance was determined at 450 nm.

Row | Binding Level sample 2 (RU) [1] | Binding Level sample 2 - sample 1 (RU) [1] | EC50 [2] | EC50 [3] | Binding Level sample 2 (RU) [4] | Binding Level sample 2 - sample 1 (RU) [4] | IC50 [5] | Binding Level sample 2 (RU) [6] | Binding Level sample 2 - sample 1 (RU) [6] | IC50, IL4 production, T-cell activation assay, donor 1 [7] | IC50, IL4 production, T-cell activation assay, donor 2 [7] | IC50, IL4 production, T-cell activation assay, donor 3 [7] | Binding Level sample 2 (RU) [8] | Binding Level sample 2 - sample 1 (RU) [8] | Binding Level sample 2 (RU) [9] | Binding Level sample 2 - sample 1 (RU) [9] | IC50 [10] | Binding Level sample 2 (RU) [11] | Binding Level sample 2 - sample 1 (RU) [11] | IC50 [12] | Binder | other results
1 | 486 RU | 194 RU | 4.9 nM | 4.03 nM | 238 RU | 45 RU | 8.89 nM | 212 RU | -9 RU | 260 nM | 320 nM | 125 nM | 252 RU | 23 RU | 192 RU | 11 RU | 0.229 nM | 252 RU | 55 RU | 0.423 nM | OX40L01E07 (VHH, monovalent Nanobody from E. coli; not shown: C-terminal c-myc and His6 tag) VHH: EVQLVESGGGLVQAGGSLRLSCAASGRTFSSIYAKGWFRQAPGKEREFVAAISRSGRSTSYADSVKGRFTISRDNAKNTVYLQMNSLKPEDTAVYYCAAVGGATTVTASEWDYWGLGTQVTVSS | IC50, IL4 production, T-cell activation assay, donor 4 [7]: 169 nM; Binding Level sample 2 (RU) [13]: 289 RU; Binding Level sample 2 - sample 1 (RU) [13]: 62 RU; Binding Level sample 2 (RU) [14]: 240 RU; Binding Level sample 2 - sample 1 (RU) [14]: 63 RU; IC50 [15]: 11 nM
2 | 380 RU | 7 RU | 3.39 nM | 2.94 nM | 238 RU | 48 RU | 5.61 nM | 383 RU | -57 RU | 230 nM | 188 nM | 80 nM | 433 RU | 205 RU | 399 RU | 205 RU | 0.278 nM | 259 RU | 61 RU | 0.375 nM | OX40L01B11 (VHH, monovalent Nanobody from E. coli; not shown: C-terminal c-myc and His6 tag) VHH: EVQLVESGGGLVQAGGSLRLSCVASGRSFSTYIMGWFRQAPGKEREFVATISRSGITTRSADSVKGRFTISRDNAKNTVYLQMNSLKPEDTAVYYCAAGPYVEQTLGLYQTLGPWDYWGQGTQVTVSS | binding result [16]: no binding (tested: starting from 100 fold molar excess); IC50, IL4 production, T-cell activation assay, donor 4 [7]: 220 nM; Binding Level sample 2 (RU) [13]: 296 RU; Binding Level sample 2 - sample 1 (RU) [13]: 76 RU; Binding Level sample 2 (RU) [14]: 358 RU; Binding Level sample 2 - sample 1 (RU) [14]: 180 RU; IC50 [15]: 5 nM
3 | 324 RU | -9 RU | 3.23 nM | 2.43 nM | 189 RU | 2 RU | 1.61 nM | 155 RU | -40 RU | 236 nM | 249 nM | 73 nM | 217 RU | -7 RU | 198 RU | 12 RU | 0.125 nM | 198 RU | 5 RU | 0.3 nM | OX40L15B07 (VHH, monovalent Nanobody from E. coli; not shown: C-terminal c-myc and His6 tag) VHH: EVQLVESGGGLVQAGGSLRLSCAASRSIGRLDRMGWYRHRTGEPRELVATITGGSSINYGDFVKGRFTISIDNAKNTVYLQMNNLKPEDTAVYYCNFNKYVTSRDTWGQGTQVTVSS | binding result [16]: no binding (tested: starting from 100 fold molar excess); Binding Level sample 2 (RU) [13]: 237 RU; Binding Level sample 2 - sample 1 (RU) [13]: 17 RU; Binding Level sample 2 (RU) [14]: 200 RU; Binding Level sample 2 - sample 1 (RU) [14]: 26 RU; IC50 [15]: 2 nM
